# Assay: yeast display, Sf9 membrane polyspecificity reagent, FACS + sequencing; frameworks hold sequencing errors
# Summary of the method: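 Galactose induction of a Saccharomyces cerevisiae BJ5465 synthetic nanobody display library ran 36–48 hours. The cells were then stained for 1 hour at 4 °C with 10% biotinylated, detergent-solubilized Sf9 membrane reagent, pulled down on streptavidin microbeads and FACS-sorted into low and high (top ~1%) gates on expression and reagent-binding fluorescence. Labels for polyreactivity follow the gate of origin.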
row,Sequence,polyreactivity (PSR sort gate)
1,QVQLVESGGGLVQAGGSLRLSCAASGRIFTTYAMGWYRPAPGKERELVAANTSGGRTNYADSVKGRFTISRDNAKNTVYLQMNSLKPEDTAVYYCAADGGVRRLTGLLYSFDYWGQGTQVTVSS,low polyreactivity
2,QVQLVESGGGLVQAGGSLRLSCAASGRIFTTYAMGWYRQAPGKEREFVAAINYSGGRTYYAESVKGRFTISRDNAKNTVYLQMISLKPEETAVYYCAARSLFRGDYWGQGTQVTVSS,high polyreactivity
3,QVQLVESGGGLVQAGGSLRLSCAASGRIFTTYAMGWYRQEPGKERELVAAISQNGGSTYYADSVKGRFTISRDNAKNTVYLQMNTLKPEDTAVYYCAAADYYGIRDLYASDGTHYYSWGQGTQVTVSS,low polyreactivity
4,QVQLVESGGGLVQAGGSLRLSCAASGRIFTWKGMGWYRQAPGKERELVARISSGTRTNYADSVKGRFTISRDNAKNTVYLQMNCLKPEDTAVYYFAAAAKRSDAYHNRRYYWGQGTQVTVSS,high polyreactivity
5,QVQLVESGGGLVQAGGSLRLSCAASGRIFTWYGMGWYSQAPGKERELVARITQRGGTTYYADSVKGRFTISRDNAKNTVYLQINSLKPEDTAFYYCATQYTYTGRRYYSYVDGSRYYYWGQGTQVTVSS,high polyreactivity
6,QVQLVESGGGLVQAGGSLRLSCAASGRIFTWYTMGWYRQAPGKERELVAAINRGGSTTYADSVKGRFTISRDNAKNTVYLQMNSLKPEDTAVYSCAAYRYTSRVYSYWRGYDYWGQGTQVTVSS,high polyreactivity
7,QVQLVESGGGLVQAGGSLRLSCAASGRIFTYNAMGWYRQAPGKERELDATITWRGGGTYYADSVKGRFTISRDNAKNTVYLQMNSLKPEDTAVYYCNRRLPGDGQYGYRRYDYWGQGTQVTVSS,low polyreactivity
8,QVQLVESGGGLVQAGGSLRLSCAASGRIFTYNAMGWYRQAPGKERELVAASSRRGGTTYYADSVKGRFTISRDIAKITVYLQMNSLKPEDTAVYYCAARGQYRYSFGDYSWGQGTQVTVSS,high polyreactivity
9,QVQLVESGGGLVQAGGSLRLSCAASGRIFTYNVMGWYRQAPGKERELVAAIYSSGVRTSYADSVKGRFTISRDNAKNTVYLHMNSLKPEDTALYYCAADKRYHYGLLHDPSYYYDYWGQGTQVTVSS,low polyreactivity
10,QVQLVESGGGLVQAGGSLRLSCAASGRIFVANAMGWYRKAPGTERELVAAISRRGGRTYYADSVKGRFTISRDNAKNTVYLQMNSLKPEDTAVYYCAAIRSVTRFPRRYDYWGQGTPVTVSS,high polyreactivity
11,QVQLVESGGGLVQAGGSLRLSCAASGRIFVANAMGWYRQAPGKERELVAVISGSGGRTYYADSVKGRFTISRDNAKNTVYLQMNSLKPEDTAVYYCAAQKWQQGITAYEYWGQGTQVTVSS,high polyreactivity
12,QVQLVESGGGLVQAGGSLRLSCAASGRIFVAYAMGWYRQAPGKERELVAAITWSGTSTYADSVKGRFTISRDNAKNTVYLQMNSLKPEDTAVYYCAKKAIVSDQWDKYDYWGQGTQVTVSS,low polyreactivity
13,QVQLVESGGGLVQAGGSLRLSCAASGRIFVAYAMGWYRQAPGKQRELVADIDYIDGSTYYADSVKGRFTISRDNAKNTVYLQMNSLKPEDTAVYYCAVDSLYYAGYYDYWGQGTQVTVSS,high polyreactivity
14,QVQLVESGGGLVQAGGSLRLSCAASGRIFVDNAMGWYRQAPGKERELVATITSTGSTNYADSVKGRFTISRDNAKYTVYLQMNSLKPEDTAVYYCNADGKLQDYDYWGQGTQVTVSS,high polyreactivity
15,QVQLVESGGGLVQAGGSLRLSCAASGRIFVFNAMGWYRQAPGKERELVAAISRRGGSTYYADSVKGRFTISRDNAKNTVYLQMNSLKPEVTAVYYCAAVYPDYSSARYDYWGQGTQVTVSS,high polyreactivity
16,QVQLVESGGGLVQAGGSLRLSCAASGRIFVFYAMGWYRQAPGKERELVAAISKSVGPTYYADSVKGRFTISRDTAKNTVYLQMNSLKPADTAGYYCNKRSASDLWPQYGYWGQGTQVTVSS,low polyreactivity
17,QVQLVESGGGLVQAGGSLRLSCAASGRIFVFYAMGWYRQAPGKVREFVATISYSGDTTYYADSVKGRFTISRDNAKNTVYLEMNSLKPEDTAVYYCAADQVPSYYYVPLGYDSWGQGTQVTVSS,low polyreactivity
18,QVQLVESGGGLVQAGGSLRLSCAASGRIFVGDAMGWYRQAPGTERELVAAISRDGDNTFYADSVKGRFTISRDNAKNTVYLQMNSLKPEDTAVYYCAVDYWVWYGSAYAYDYYWGQGTQVTVSS,low polyreactivity
19,QVQLVESGGGLVQAGGSLRLSCAASGRIFVGNAMGWYRQAPGKERELVAAISRSGGRTYYADSVKGRFTISRDNAKNSVYLQMNSLKPEDTAVYYCAAVSLSGRYGDYDYWGQGTQVTVSS,high polyreactivity
20,QVQLVESGGGLVQAGGSLRLSCAASGRIFVGYAMGWYRQAPGKERELVAAISARGGSTYYADSVKGRFTISRDNAKNTVYLQMNSLKPEDTAVYYCAADEASSRGYYDYDYWGQGTQVTVSS,low polyreactivity
21,QVQLVESGGGLVQAGGSLRLSCAASGRIFVGYAMGWYRQAPGKERELVAAISRSGARTYYADSVKGRFTISRAIAKNTVYLQMNSLKPVDTAVYYCNTVKVLIYSWGQGTQVTVSS,high polyreactivity
22,QVQLVESGGGLVQAGGSLRLSCAASGRIFVGYAMGWYRQAPGKERELVAAITGSGGGTYYADSVKGRFTISRDNAKNTVYLQMNSLKPEDTAVYYCNARYRSYYVTQRLDYWGQGTQVTVSS,high polyreactivity

row,Sequence,polyreactivity (PSR sort gate)
1,QVQLVESGGGLVQAGGSLRLSCAASGRIFVGYTMGWYRQAPGKERELVAAITSGGSTYYADSVKGRFTISRDNAKNTVYLQMNSLNPEDTADYYCNAAYQFDSYHLGGNRYEYWGQGTQETVSS,low polyreactivity
2,QVQLVESGGGLVQAGGSLRLSCAASGRIFVINAMGLYRQAPGKERELVADITWSGGSTYADSVKGRFTISRDTAKNTVYLQLNSLKPEDTAVYYCAAVYLRVDRYLQVYRYDYWGQGTQVTVSS,high polyreactivity
3,QVQLVESGGGLVQAGGSLRLSCAASGRIFVKNAMGWYRQAPGKERELVAAISSSSGSTYYADSVKGRFTISRDNAKNTVYLQMNSLKPEDTAVYYCATVRWYYSRPRPTTAYGYWGQGTQVTVSS,high polyreactivity
4,QVQLVESGGGLVQAGGSLRLSCAASGRIFVLNAMGWYRQAPGKERELVAAITFSGGRTYYADSVKGRFTISRDNAKNTVYLQMNSLKPEDTAVYYCATRQDWRRTYGYWGQGTQVTVSS,low polyreactivity
5,QVQLVESGGGLVQAGGSLRLSCAASGRIFVNNAMGWSRQAPGKERELVAAISKRGGSTYYADSVKGRFTISRDNAKNSVYLQMNSLKPEDTAVYYCAATPVYSGPYDYWGQGTQVTVSS,high polyreactivity
6,QVQLVESGGGLVQAGGSLRLSCAASGRIFVNYAMGWYRQAPGKERELVAAITSDGSTSYADSVKGRFTISRDNAKNTVYLQMNSLKPEDTAVYYCAKDFFEHSPVSHTYSSSNYDYWGQGTQVTVSS,low polyreactivity
7,QVQLVESGGGLVQAGGSLRLSCAASGRIFVPNAMGWYSQAPGKERELVAAINWGGGSTYYADSVKGRFTISRDNAKNTVYLQMNSLKPEDTAVYYCAADHPYTIGVLPNQQFDYWGQGTQVTVSS,low polyreactivity
8,QVQLVESGGGLVQAGGSLRLSCAASGRIFVPYLMGWYRQAPGKERELVASISDSDTSTYYADSVKGRFTISRDNAKNTVYLQMNCLKPEDTAVYYCNVDYWGQGTQVTVSS,low polyreactivity
9,QVQLVESGGGLVQAGGSLRLSCAASGRIFVPYLMGWYRQAPGKERELVASISDSDTSTYYADSVKGRFTISRDNAKNTVYLQMNSLKPEDTAVYYCNVDYWGQGTQVTVSS,low polyreactivity
10,QVQLVESGGGLVQAGGSLRLSCAASGRIFVQNAMGWYRQAPGKERELVAAISISGARTYYADSVKGRFTISRDNAKNSDYLQMNRLKPEDTAVYYCNASYRDEDDYWGQGTQVTVSS,high polyreactivity
11,QVQLVESGGGLVQAGGSLRLSCAASGRIFVRNAMGWYRQAPGKERELVAAITRTGASTYYADSVKGRFTISRDNAKNTVYLQMNSLKPEDTAVYYCNKEIVWHLWYESWGQGTQVTVSS,high polyreactivity
12,QVQLVESGGGLVQAGGSLRLSCAASGRIFVRNAMGWYRQAPRKERELVADITNGGSTNYADSVKGRFTISRDNGMNTVYLQMNSLKPEDTAVYYCAADTLGVYDGDYWGQGTQVTVSS,low polyreactivity
13,QVQLVESGGGLVQAGGSLRLSCAASGRIFVRYAMGWYRQAPGKERELVAAINWRGSSTYYADSVKGRFTISRDNAKNTVYLQMTSLKPEDTAVYYCNTAQRYRVYRYDYWGQGTQVTVSS,high polyreactivity
14,QVQLVESGGGLVQAGGSLRLSCAASGRIFVSNGMGWYRQAPGKERELVAVIRYSTGSTYYADSVKGRFTFSRDNAKTTVYLQMNCLKPEDTAVYYCAARNPFFEPSEYDYWGQGTQVTVSS,low polyreactivity
15,QVQLVESGGGLVQAGGSLRLSCAASGRIFVTNAMGWYRQAPGKERELVAAITRGGSTNYADSVKGRFTISRDNAKNTVYLQMNSLKPEDTAVYYCAAKRRYYGPWSRIGYDYWGQGTQVTVSS,low polyreactivity
16,QVQLVESGGGLVQAGGSLRLSCAASGRIFVTNAMGWYRQAPGNERELVAGLNRSGDITYYADSVKGRFTISRDNAKNTVYLQMNSLKPEDTAVYYCAVDFYVYRWSPYGDVYRYDYWGQGTQVTVSS,high polyreactivity
17,QVQLVESGGGLVQAGGSLRLSCAASGRIFVVNAMGWYRQAPGKERELVAAISSSSDSTYYADSVKGRFTISRDNAKNTVYLQMNSLKPEDTAVFYCAADYHYDGYWIYDYWGQGTQVTVSS,high polyreactivity
18,QVQLVESGGGLVQAGGSLRLSCAASGRIFVVYAMGGYRQAPGKERDLVASISRGGRTYYADSVKGRFTISRDNAKNTVYLQMNSLKPEDTAVYYCAVVVYLKNRDLFDYWGQGTQVTVSS,low polyreactivity
19,QVQLVESGGGLVQAGGSLRLSCAASGRIFVVYAMGWSRQAPGKERELVAAIRSGGSTNYADSVKGRFTISRDNAKNTVYFQLNSLKPEDTAVYNCAARKWHSAYDYWGQGTQVTVSS,high polyreactivity
20,QVQLVESGGGLVQAGGSLRLSCAASGRIFVVYAMGWYRQAPGKERELVAAITGGGRTNYADSVKGRFTISRDNAKNTVYLQKNSLKPGDSAVYYCAAGTRSDARRYYYWGQGTQVTVSS,low polyreactivity
21,QVQLVESGGGLVQAGGSLRLSCAASGRIFVVYAMGWYRQAPGKERELVAAITGGGRTNYADSVKGRFTISRDNAKNTVYLQMNSLKPEDTAVYYCAAGTRSDARRYYYWGQGTQVTVSS,low polyreactivity
